{
  "source": "paper PMC3936849",
  "about": "“MB109 as bioactive human bone morphogenetic protein-9 refolded and purified from E. coli inclusion bodies” (Microbial Cell Factories, 2014)",
  "molecular_target": "the molecule itself",
  "assay": "non-reduced SDS-PAGE; SEC-purified denatured monomeric MB109 refolded by rapid dilution (CHAPS, NaCl, EDTA, GSH/GSSG, Tris-HCl, 4°C, 7 days); supernatants run on non-reduced 12% SDS-PAGE; disulfide-linked dimer",
  "data": [
    {"protein": "MB109 (E. coli-derived mature domain of human bone morphogenetic protein-9, refolded functional dimer) (ligand, engineered first methionine (translational start) directly before Ser320; mature domain of human BMP-9, Ser320-Arg429 (110 amino acids) of the 429-residue polypeptide; Disulfide-linked homodimer of the mature domain; pET21a between NdeI and XhoI with a 3' stop codon; also called hBMP-9 mature domain; human BMP-9) MSAGAGSHCQKTSLRVNFEDIGWDSWIIAPKEYEAYECKGGCFFPLADDVTPTKHAIVQTLVHLKFPTKVGKACCVPTKLSPISVLYKDDMGVPTLKYHYEGMSVAECGCR", "values": [
      {"measurement": "stoichiometry N", "result": 2}
    ]}
  ]
}
